According to patent publication US20200360437A1:

Target: NKG2D ligand MIC-A and MIC-B molecules on tumor cells
Assay: cell-based or functional assay

specific lysis activity (CCK-8), A549 cells, effector:target 0.5:1: 21%
specific lysis activity (CCK-8), A549 cells, effector:target 1:1: 30%
specific lysis activity (CCK-8), H1299 cells, effector:target 0.5:1: 39%
specific lysis activity (CCK-8), H1299 cells, effector:target 1:1: 80%
specific lysis activity (CCK-8), MCF-7 cells, effector:target 0.5:1: 43%
specific lysis activity (CCK-8), MCF-7 cells, effector:target 1:1: 56%
specific lysis activity (CCK-8), MDMB-231 cells, effector:target 0.5:1: 7%
specific lysis activity (CCK-8), MDMB-231 cells, effector:target 1:1: 14%
specific lysis activity (CCK-8), SW-480 cells, effector:target 0.5:1: 8%
specific lysis activity (CCK-8), SW-480 cells, effector:target 1:1: 16%
Substance: fusion protein NKG2D-CD8αhinge-CD8TM-4-1BB-CD3ζ (chimeric antigen receptor expressed on NK-92 cells)
